From US20250236667A1, “ANTIBODIES TO MUTANT CALRETICULIN AND USES THEREOF” (CENTRAL ADELAIDE LOCAL HEALTH NETWORK INC, priority 2021, published 2025)

Key:
Format in all cases: cell-based, human
[1] = tested on: TF-1 TpoR CALR^del61 cells; assay: Cell proliferation, trypan blue exclusion; conditions: over 5 days at 2, 10 and 20 μg/mL
Procedure: […] Cells were seeded in triplicate and each well was counted in triplicate every 24 hours for 5 days using trypan blue exclusion.

[2] = tested on: TF-1 TpoR CALR^del52 cells; assay: Cell proliferation, trypan blue exclusion; conditions: over 5 days at 2, 10 and 20 μg/mL
Procedure: (§1) In brief, cells were seeded at 5×10^4/mL in standard growth media, with any necessary cytokines, and the addition of 20 μg/mL IgG or 2, 10 or 20 μg/mL 4D7. Cells were seeded in triplicate and each well was counted in triplicate every 24 hours for 5 days using trypan blue exclusion.

[3] = tested on: TF-1 cells expressing TpoR alone (endogenous wild type CALR); assay: Cell proliferation, trypan blue exclusion; conditions: in presence of TPO; 2, 10 or 20 μg/mL
Procedure: as §1

[4] = tested on: ruxolitinib-resistant TF-1 TpoR CALR^del61 cells; assay: Cell growth in liquid culture, trypan blue exclusion; conditions: 20 μg/mL, 96 hours
Procedure: A. Graph showing effect of ruxolitinib on megakaryocyte differentiation at 50 and 100 nM in healthy CD34+ cells (n=4). B. Effect of 4D7 on TPO-dependent megakaryocyte differentiation of healthy CD34+ cells cultured with 20 μg/mL 4D7 or IgG control (n=4). C. Total numbers of hematopoietic colonies plated in MethoCult from healthy cord blood after treatment with 4D7 or IgG. CFU-GM, colony forming unit-granulocyte macrophage: BFU-E, blast forming unit-erythroid: CFU-GEMM, colony forming unit granulocyte, erythroid, monocyte, megakaryocyte (n=3).D. CD41+megakaryocyte colonies from healthy CD34+ cells observed on collagen matrix after 4D7 treatment. Colonies were cultured in TPO, SCF. IL-9 and IL-3. E. Number of megakaryocyte colony forming units observed in MegaCult assay after treatment of healthy cord blood CD34+ cells with either IgG or 4D7 (n=3). F. Western blot showing signalling in ruxolitinib-resistant TF-1 TpoR CALR^del61 compared to ruxolitinib sensitive TF-1 TpoR CALR^del61 cells after treatment with 100 nM ruxolitinib for 16 hours or 30 minutes and blotted for phospho-STAT5, total STAT5, phospho-ERK, total ERK and actin as indicated. Ruxolitinib-sensitive cells were non-viable after 16 hours of treatment. […] Cells counted using Trypan Blue exclusion with replicate wells (n=3). […]

B1: 4D7: rat monoclonal IgG2a antibody against the mutant CALR neoepitope; VH SEQ ID NO: 5, VL SEQ ID NO: 7 (antibody, listed as Rattus rattus, V domains shown)
VH: QVQLQQSGAELAKPGSSVKISCKASGYTFTNYDMSWIKQRPGQALEWIGAINPGNGVTDYNEKFRGKATLTVDKSSSTAFMQLSSLTPEDTAVYHCAREYRDNYGYFDYWGQGVMVTVSS
VL: DIVLTQTPVSLSVTLGDQASISCRSSQSLEYSDGYTYLDWFLQKPGQSPQLLIYEVSSRFSGVPDRFIGRGSGTDFTLKISRVEPEDLGVYYCFQATHDPFTFGSGTKLEIK
TPO-independent cell growth [1]: blockade of TPO-independent cell growth | TPO-independent cell growth [2]: blockade of TPO-independent cell growth | inhibition of proliferation [3]: no inhibition | inhibitory activity on cell growth in liquid culture [4]: strong inhibitory activity
